In this data set the test system is CC(=O)Oc1ccc([N+](=O)[O-])cc1. As to the kind of experiment: purified protein. To be noted: 100 mM sodium acetate pH 6.0, 30°C.

The values that follow come from PMC3688963, “Biochemical Characterization of Hypothetical Proteins from Helicobacter pylori” (PLoS ONE, 2013).

For HP0310 (Helicobacter pylori 26695), the Michaelis-Menten constant (Km) (commonly the concentration of substrate that gives half-maximal velocity) was 180 ± 50 µM; the Vmax (usually the top rate of the reaction or transport when substrate is in excess) was 37400 µM/min; the kcat – broadly, the number of substrate molecules converted per active site and unit of time at saturation – was determined as 20.1 ± 0.917 s⁻¹; the kcat/Km (usually the second-order rate constant that governs catalysis at low substrate concentration) came out at 112000 M⁻¹ s⁻¹.
